Experimental data taken from US20100120118A1.

System: purified MrpC

N-terminal histidine-tagged MazF-mx (H-MazF)
gel-shift assay of MrpC on the mazF-mx promoter (PmazF) after preincubation with H-MazF: Binding of MrpC to the promoter region was found to be inhibited when MrpC was preincubated with MazF-mx
